These results are taken from patent publication US20020142429.

Data set [1] deals with T1, amidated 16'mer peptide RKKFGESEKTKTKEFL
T1 sequence: RKKFGESEKTKTKEFL

Data set [2] relates to peptides centered around the phosphorylation site of eEF-2.

With “recombinant eEF-2 kinase (as used in the peptide phosphorylation assay)”, the phosphoacceptor activity result in data set [1] is reported as “amidation of the peptide further stabilizes the α-helical structure, resulting in stronger phosphoacceptor activity”. Besides, the phosphorylation assays entry in data set [2] is given as “This strategy did not yield a peptide that was functional in phosphorylation assays (data not shown)”.
